test: soluble on expression in E. coli; label from the status in PepcDB or PDB records

| Sequence | soluble on expression in E. coli |
| --- | --- |
| MSNVPAELKYSKEHEWLRKEADGTYTVGITEHAQELLGDMVFVDLPEVGATVSAGDDCAVAESVKAASDIYAPVSGEIVAVNDALSDSPELVNSEPYTGGWIFKIKASDESELESLLDATAYEALLEDE | not soluble |
| MSLRSTKTIHVISCHAEGEVGDVIVGGVAPPPGETLWEQRSFIARDQTLRNFVLNEPRGGVFRHVNLLVPPRHPEADAAFIIMEPEDTPPMSGSNSICVSTVLLDGGIVPMIEPITEMVLEAPGGLVRVKAECRNGKAERIFVQNVTSFADKLSVPLDVEGIGTLTVDTAYGGDSFVVVDAEALGFAIVEDEAKDIARLGVRITNAANEQLGFSHPENPDWNHISFCAFCGPLSQTPTGLTGRSAVAIQPGKVDRSPTGTAVSARMALMAARGQMTIGDTFEAVSIIGSSFTGRIVSQQMAGDRPGIVPEISGRGWITGIHQHMLDPSDPWPGGYKLSDTWGAEGHHHHHH | soluble |
| MTIKWIDWVKQIQSIAQAGLTYSKDVYDIERFQQLRDISISMMSHYTKTDWEVVEKLFASETGYQTPKVDIRAVVFQNEKLLFVKEKSDGKWALPGGWADVGYTPTEVAAKEVFEETGYEVDHFKLLAIFDKEKHQPSPSATHVYKIFIGCEIIGGEKKTSIETEEVEFFGENELPNLSIARNTEDQIKEMFAYMKDPQKEKLID | not soluble |
| MHRRGVGAGAIAKKKLAEAKYKERGTVLAEDQLAQMSKQLDMFKTNLEEFASKHKQEIRKNPEFRVQFQDMCATIGVDPLASGKGFWSEMLGVGDFYYELGVQIIEVCLALKHRNGGLITLEELHQQVLKGRGKFAQDVSQDDLIRAIKKLKALGTGFGIIPVGGTYLIQSVPAELNMDHTVVLQLAEKNGYVTVSEIKASLKWETERARQVLEHLLKEGLAWLDLQAPGEAHYWLPALFTDLYSQEITAEEAREALP | soluble |
| MGSDKIHHHHHHMSSEKLRVAAIDLGTNSFHMVIVEESEEKGIVEIDRVKDMICIGRGSISTKRLDDGAMEAGVATLRNFIVLATQRGVALHNILAFATSAIREADNRDEFIDMVRRETGLKIRVITGKEEAQFIYYGVRNAVTLRDKPDLLFDIGGGSVEFIIADKSKVHLLESRKIGVARMLERFVTTDPVSAHELHLLQQFFAAEMYGGAAEMAHELGVSRAIASSGTAQNIARMIRLGKHADGADVLNQSSFTRQEFESFYRQVIAMDASARRKLTGLDEKRVDLIVPGLILFDTIFRVFGIKDVVISDSALREGMVLHQIALIRGRDGSSQLDIRRQSVMELGYRCNWHKPHSEQVARLALMLFDELHPLHGLKERYRELLEYAAMLHNIGEFISISAHHKHSQYIIMNADLRGFSPTEIDIIGNVARYHRKQPPTERHPLYSQLKPSHRRVVDVLSGILRIANGLERGHRQNVQSITARIDQERIVLEALTQFEPDIELWAACGLKEWLEEVLGKPILIEARVR | not soluble |
| KNVLILGAGGQIARHVINQLADKQTIKQTLFARQPAKIHKPYPTNSKIIMGDVLNHAALKQAMQGQDVVYANLTGEDLDIQANSVIAAMKACDVKRLIFVLSLGIYNEVPGKFGEWNNAVIGEPLKPFRRAADAIEASGLEYTILRPAWLTDEDIIDYELTSRNEPFKGTIVSRKSVAALITDIINKPEKHIGENIGINQPGTDG | not soluble |
| MNSLLAELNRLGVAHATTEDVFIFVDRLFQHFSFLFQAEESGPRRLELVASVFEHLTVECVNDILDACSHPDVNVAETSNTCRPCPSPVPSAPKTVSGAQTSCATPRAPVTLEHHHHHH | not soluble |
| MVGGSLSPAFTIDEATSYINAVKEAFGADQPAKYREFLDIMLDLRANRVDLATVVPRMRELLKDHVNLLLRFNAFLPAEAKETFHDVRSYIYSLKESFRDEPAKYAQFLEILNDYSARRVDAPSAVARMTELMKDHRNLVLGFSVLLSTGDTKTTPLEAEPDNNKRIRVANFISKLKARFQGNDGHVYESFLEILTMYQQGNKSVNDLYQEVVALLQGHEDLVMEFSNVFKRTTGPSGSKSARDR | soluble |
| MAGEEINEDYPVEIHEYLSAFENSIGAVDEMLKTMMSVSRNELLQKLDPLEQAKVDLVSAYTLNSMFWVYLATQGVNPKEHPVKQELERIRVYMNRVKEITDKKKAGKLDRGAASRFVKNALWEPKSKNASKVANKGKSKS | not soluble |
| MDDRLYAPATERNRDAILAVLKDELRSPGTVLEIASGTGEHGAYFAPQLPDYFWQPSDPNEESRRSIAAWRSHVNAPNLGEAIAIDVTRSDWVESVPEFPQPVVAIAAINLIHISPWEATLGLFAGAKQLLSVDGLIYLYGAYKRGGQHTAPSNEAFDASLQARNPAWGARNLEDVTAVAEAEQFRLDRIVEMPSNNLSVCFRAIALEHHHHHH | soluble |
| MGQKRMNKSNKLVIINRAIPGGGKTSLIKQIEELAKSLGHSISVHSTDEYFIQTDEEGIRHYVVDKKKLNEYHQNNQEAFKQALENRIDIVVCDNTNFESWQSKPYTDMAREFGYKILLIDFKNRHLETPMDYGWDVAQCIKKPRGIAKHYDYDFYLERVLVEPQDYEKQNRELSLKALEFLKYNFDFDVIFYSFGEQLMPILTRMLVSVSKSHRKRLENYGKDIKTLEHHHHHHLEHHHHHHLEHHHHHHLEHHHHHHLEHHHHHHLEHHHHHHLEHHHHHH | not soluble |
| YSLAVGGSSPFAEELMQELALTTEQLQVRAQEVLTEILNDYSSLRVKTIDSFFQEVMRAFSHELGLPGGFRIEMEQKAVLEQAVVRLLHSLGEKDTSDVENWIRRLAEDLIEEGRGHNIRREIVSLGDELFKEQLLLLSEEGKLPTKAAIHRYQTEMNKLMEGFEQRRLSIARRAEEIVATAGISFYDFKGGTKGGILEFAKVLKGGEVKPPTKTFMAMAEGDPETTLYAKTTPATTQAAILSAYQSGLKECLTEMATLYLGREWQEYSTAKQSLPFLNRLGIISDLWRQIEGIRQEENKMLISDAPSLLHRIIDGSETPFVYDK | not soluble |
| MSLKRVMTLADIALLANVSKSTASRALRNNPLINKNTRELVQEIALKHNFKVNATASNLRTQKTNTIAVVVMFDQKSGQAISDPFLMEILGTIADELTHFGYDMLLTTTKTATHDWYSYYYESKRADGLIIIGQGEHDQRIEALISTDLPFIVWGTEIHEKNYTTVGSDNRKGGYLAVSHLIEQGCQRIAFLGDINHTEVEQRWLGYQDAVAEAGLVVEDKLQIKTDFTSVDGYQSLRDHCLNDDVPIDGVFAVSDAIALGATKYLFEQNITIPKQVAVIGFDDISMSEYCSPSLSTIRQNTAAGGRLLVKLMLDKLNHLPVDSQLLNVEMIQRQSSEGHHHHHH | soluble |
| MGHHHHHHSHMTLVLSMNRFCEPIVSEGAAEIAGYQTLWEADSYGGPSPPGPAQAPLQGDRGAGPPLAGSHYRGISNPITTSKITYFKRKYVEEEDFHPPLSSCSHKEQSRGQLVEDMTIKRHQLRNKYKTRIQGFLCDAARFLYPSNKCICDRLKNDD | not soluble |
| SNADRRYKWQTVVSEQLVGAGFNEILNNSLTAGSYYEGLKSHPREMAVELMNPLSQELNCMRQTLLFGGLETLSHNLRRKHLSLYLFEWGKCYRFHAAKRTDETPLAAYAEDDRLGIWICGQRVHNSWAHPEEPTSVFELKAVVEQVLCRVGIETGAYTLKTADNDLYASAMEVKTRSGKLLGTFGTVSTELIKRFEIEQPVYFAELLWDALM | soluble |
| MATKKATMIIEKDFKIAEIDKRIYGSFIEHLGRAVYGGIYEPGHPQADENGFRQDVIELVKELQVPIIRYPGGNFVSGYNWEDGVGPKEQRPRRLDLAWKSVETNEIGLNEFMDWAKMVGAEVNMAVNLGTRGIDAARNLVEYCNHPSGSYYSDLRIAHGYKEPHKIKTWCLGNEMDGPWQIGHKTAVEYGRIACEAAKVMKWVDPTIELVVCGSSNRNMPTFAEWEATVLDHTYDHVDYISLHQYYGNRDNDTANYLALSLEMDDFIRSVVAIADYVKAKKRSKKTIHLSFDEWNVWYHSNEADKLIEPWTVAPPLLEDIYNFEDALLVGCMLITLMKHADRVKIACLAQLVNVIAPIMTEKNGPAWKQTIYYPFMHASVYGRGVALHPVISSPKYDSKDFTDVPYLESIAVYNEEKEEVTIFAVNRDMEDALLLECDVRSFEDYRVIEHIVLEHDNVKQTNSAQSSPVVPHRNGDAQLSDRKVSATLPKLSWNVIRLGKR | soluble |
| MPDAQILSTHEHGVVVALGDIRTADSITTVVAGVGSANPTQWLNYVERAQHIQQATGGAAVAWLGYNAPANVAAAAAQTPAQQGASQLQKFQKELRTLNPKARLMVFGHSYGSVVAGHAVAHGLDADTFIVAGSPGVPPNPQLHSPNPRLISVLGSHDIIGLTGTNTVAAHGIDPSALSAQDAGFERWGVAGGHESYFTDKRLEHHHHHH | not soluble |

— the DeepSol protein solubility set
